A short description of this series: label from the status in PepcDB records.

In the case of “MRYAVVLYPCSSFHHESVRPSRFPAPRRHPLLHRLPLAVARRLAGPGTADHFRERAGRGGAASRQRRRVPRRGRRRAAVGPQGGRRLSRAENPQAAAARPHRAGQGAGAQRPSLSAAMNAPQRKIIHVDCDCFYAAIEMRDDPSLRDVPLAVGGRPETRGVVATCNYIARRYGVHSAMSSARALRLCPELLIVPPDMARYRLASQQIMAIYQRYTEVIEPLSLDEAYLDVTGQPHERGSATLMAEAIRRQIRDEVGITASAGIAPNKFLAKVASDWNKPDGQYLIRPRDIDAFVAVLPVEKIHGVGRVTAERLHRLGIRSCGDLRRWSPADLFRHFGSFGERLLALAHGRDERPVSTDRSRKTISVEETYAQDLPDLASCLSKLPELVDRLQARLARSGSPAFKGLSVKLKFDDFSQTTVEQPGYALSMAAFGQLLRAGHARGARPARLLGVGVKLADDFDLPRQLRLFGRDGRPLPDSAPPAEAPPGGPEADSAA”, the protein production entry is recorded as “failed”.

Turning to “MSAATPQPPAPHVVLGSGPAGTALARELVRRGHPVRLVDRRATGPAVEGVERFPADVGTADGARAAIRDAAVVYHCVNVAYHLQVEVMPRVQEAVLAAVEESGARLVVLDTVYPYGETGGAVMTEDSPWKATSRKGRMRAELDERYLAAHRSGRARVVLGRSADFVGPGVLNSSLGAAVFPGALTGGDVVAMGNIDLPHSYTGIEDVAAALATLGERPDGDGRVWHLPTAPAVSTREIHALIEKRVGRPLNVVVLERPRPFGPFDEQLMAEYEEMFYQHTEAQIMDSGAFERFFEAAPTPLADTLDATVTWYEAWLRSR”, the protein production entry is “failed”.

Consider “MSAEATPESTLPGTAAETSPDNPWPLQLLSRKLKAHIERAPAAWIEGQVIELNRRGGNAFLTLRDVDAEISLPASVWSTVLDRQKVPLERGSRVVALVKADFWVKTGRLNMSVKDIRPVGLGDLLARIERLRQALAAEGLFADSRKRKLPLLPHRIGLITGRESDAKKDVMRNAALRWPAVEFDVREVAVQGNTAVSQIIAALKRLDADPHVDVIVLARGGGALEDLLPFSNEDLIRAVSAATTPVVSAIGHEADRPILDDVADLRASTPTDAAKRIVPDVAEELAMVRQARDHLRRSISRMVDRETDRLHALRSRPVLASPASMVDARSEDIHRLQRRTHSAVSTAVVRALDQVHHLRAQVRALSPQKTLDRGYAVVQLVGEDQAGHHVVSSPDEAPDGTPLSIRVAEGRFRAVSAGAGQLVEH”, for which the protein production entry was “failed”.

Turning to “MSAERSRWLQCLGLPATADAIAIKTAYRQLARQWHPDCNPDPQATARFQEIQIAYERLLVLQESATAQPVPQAPPADAALIALKRQFQPQLQDLLADGRWAKAIALTEALQQRLPDDWEVRQWLAICYLRQGQALLVQQQRQQAIVYFEKARRTDPHNPRLQQEIQASHRLASARRA”, the protein production entry was “failed”.

Consider “MSAGLVQAAYIVAALFFIMSLAGLSKQESARNGNYYGIAGMAIALIATIFSPDAQGFGWIIIAMAIGGAIGIFYAKKVEMTEMPELVAILHSFVGLAAVLVGYNSYLDAPEAATHAEHVIHLVEVFLGVFIGAVTFTGSIVAFGKLRGVISSSPLNLPHKHKMNLAAIVVSTLLMIYFVKADGSMFALIVMTLIAFAFGYHLVASIGGADMPVVVSMLNSYSGWAAAAAGFMLANDLLIVTGALVGSSGAILSYIMCKAMNRSFISVIAGGFGQEIIISSDEEQGEHRETTAEEVAEMLKNSKSVIITPGYGMAVAQAQYPVHEITDALRSQGIEVRFGIHPVAGRLPGHMNVLLAEAKVPYDIVLEMDEINDDFSETDTVLVIGANDTVNPAALEDPNSPIAGMPVLEVWNAKNVIVFKRSMNTGYAGVQNPLFFKENTSMLFGDAKESVEAIFKAL”, for which the protein production entry was “not failed”.

On to “MSAIDCIITAAGLSSRMGQWKMMLPWQQGTILDTSIKNALQFCSRIILVTGYRGNELHERYVNQSNITIIHNPDYAQGLLTSVKAAVPAVQTEHCFLTHGDMPTLTIDIFRKIWSLRNDGAILPLHNGIPGHPILVSKPCLMQAIKRPNITNMRQALLMGAHYSVEVENAEIILDIDTPDDFITVQKRYTKI”, for which the protein production result was “failed”.

Consider “MSAIDRGSGSSMEEPERPEGPLADADGRESVTDHQDTTAADTPEDATTGSAARSETGAAPDTAQAASAPSAAAAPASEPAASAAEQRDASHEAPAPGSRETPPHPAPRPAPFAPQSHAPHPAWGPPAPDQATARHGAQAYPGPEAPQPAPGRPGPPPAGGVPAGAAQGAWQERPAQHDQPNSPTGAWAVPPSPGGFFPPTGGFPTLHGSSPFEGAPPPGKPQRSGRVVLIAAVTALITSLIVGPAASVATAYFLSEQVAANPAATSAASGDVTKVAAKALPSVVSIATAEGGGSGFIIRDDGLIVTNNHVVSDAQELTVLFHDGSQASATIVGTDPVSDLAVIRAQGVSGLTPASLGDSDQVEVGAEVVAIGAPLGLSGTVTSGVVSAVERPVNTGVSGQQDSPLLPSPDEEEPQATTSTVIDAIQTDAPINPGNSGGPLVNMNGEVIGINTAIATTSGNFMSQSGSIGLGFAIPINQAKPIIEELINTGKATYAAIEASVTVAEDGPGAELVEVNRGGAADQAGLRKGDVIIRIEDRMVTDPNVLIAEIRSHRPGDTVTITYQRGGQTAQTTVTLAAQSLDN”, for which the protein production entry was “failed”.

As for “MSAKSKQYFNIFVFIISLIFFDQLSKYLVAKYVKLGSIYFSFFDDFFRIIHVRNTGILFSMGSNIHYSLKKIFFLAMPIFILIFVFYLSLKERNCIARISLLLIFSGGVGNVIDRLFRPSGVVDFLDLKFYGIFGLDRWPTFNFADSYVVIGMILFLVYDFFIKRKVLNK”, the protein production entry was “failed”.

Take “MSALEPDDPRSVGEYRLLGRLGAGGMGRVFLGRSPGGRLVAVKVVHAELLRRPEFRDRFRREVQAARMVSGAFTAPVVDADPDAPLPWLVTSYIAGPSLEQAVAERGPFDPQAVLTLAAGLAEALVSIHAAHLVHRDLKPSNVLLAEDGPRVIDFGIVRSVDADSLTGSGHMAGSPGFMSPEQVNGDEVTWASDVFCLGAVLAFAATGTNPFGAGPTPALLYRVVHNAPDVAAVADPALRSLIADCLAKDPAHRPAPREILARIGPLGGESATALPHAQQWTPAARPTRADAVPTRIVPPVAAPPAHQHTRVDTSPAQVYPPAPAPADVRPTATGDGGRRSRRAFLFSGAGALAALGVGTGFWLNRPADPDPAEGSAPAPSPSSAPSPPPGPVGLWPLDEASGQVARDTAGGHDGTVTGVAWQGAGEGAAFDGTGSQIVTAGPVLQTGAGRSFTVAAWVRLSAVPGVFATAVSQDSADASGFYLQYSSEDQGWAFARPGLRAVGRTAPAAHVWTHLTGVCDGPARKLHLYVNGVQEAVVEDTGPAPATGAFMIGRASFDGQPRDFFPGAIRDVRAFDRALGPARVAQLAQLG”: the protein production result is reported as “failed”.

“MSALREALRDLPDAVFADVLESEDEYLLVLDLPGVTAETIDVTVEGGRLRIDGQRTKDVPGEFTFVREDRSVFLDAELPLPPDTTGQGGEGTVENGVLELRLPKATAAPSTTIPIDGD”: the protein production entry is “failed”.

Regarding “MSANDKLTILWTTDNKDTVFNMLAMYALNSKNRGWWKHINIILWGASVKLVANDTQVQTEILEMLQSGITIEACQDCCENFGVASIITNLGITVRYMGIPLTEYLKNGEKILSI”, the protein production result is listed as “not failed”.

For the sequence “MSANMHIFENPSALAEALADDVGARLAAAIAARGTASLAVSGGSTPKAFFRSLSRRELDWSKVTVTLVDERFVPPENDRSNHRLVADNLLKDGAAEARFVPLYQAAETAEAAAAIASGRTASLGAPLDVVVLGMGTDGHTASFFPGGTRLEEALDPTTPRGVITMEAEGAGEPRLTFTFSSLQDAGYLVLHIEGSGKKEVLAQAEASGDEAEMPIRAMLRRAASPLQIYWAP”, the protein production result is “failed”.

Regarding “MSANNTAKNMHPETRAVGSETSSLQASQDEFENLVRNVDVKSRIMDQYADWKGVRYRLGGSTKKGIDCSGFVQRTFREQFGLELPRSTYEQQEMGKSVSRSNLRTGDLVLFRAGSTGRHVGIYIGNNQFVHASTSSGVIISSMNEPYWKKRYNEARRVLSRSLEHHHHHH”, the protein production entry is on record as “not failed”.

Consider “MSAQFMTTVPVVLYLALSFGVALWARGRTAEGGSAKDIIEEYYIGGRSMGGFVLAMTIIASYTSAGSFVGGPGVAYRLGLSWVLLAMIQVPTTFLTLGVLGKRFAIVARRAGAVTLTDYLLARYRSHTVVILCSAALLVFFMAAMLAQFIGGARLFQTVTGYPYVVGLALFGVTVVLYTAVGGFRAVVVTDAVQGIVMVVAVVVVLLAVIDAGGGMTQCIATLKAIDPGLITPTGPGDAVPQPFMLSFWVLVGLGVLGLPQTTQRCMGYRDSRAMHDAMIIGTLLIGFMILCAHLAGTLGRAVLPDLPAGDLAMPSLIVQLLSPFWAGVFIAGPLAAIMSTVDSMLLLASAAIVKDLYVRYRLGGDTSRLRPVTMKRMSVASTAVIGVLVFVAAMEPPDLLVWINLFAFGGLEAVFLWPLVLGLYWRRGNATGAIASILSGVTAFVWLTIAKPDMGGIHAIVPTTLLSLVMFVAGSLAGRPSGREVDALFGGERS”, for which the protein production result is “failed”.

On to “MSASGLLVEKSGPLSLIQDFGRFGLAHIGITQGGPVDDYAYSWANHLLGNRVNCSAIEITLGNACFIALQDCHLAICGGDLNASVDGHPIANWSDFSIKKGQKLQFGMAKNGLRAYLAVKGGFNVPEHLGSSSTVLREALGGLEANGNALKAGDVLPFDAHSLPNHKPRIMTFRFKPDYNLPITLRVIEGYQCDDFSVEAKEKFYSGSFAISPDSNRMGYRLEGNTVKPPYDGILSEGIALGAIQIPHDGNPIVLLNDHQTIGGYPKLGCVARIDLPRLAQAKPGQKVRFVKGDRQGLQDVWCQWAQFFGY”, for which the protein production entry is reported as “failed”.

Turning to “MSASIRDAGVADLPGILAIYNDAVGNTTAIWNETPVDLANRQAWFDTRARQGYPILVASDAAGEVLGYASYGDWRPFEGFRGTVEHSVYVRDDQRGKGLGVQLLQALIERARAQGLHVMVAAIESGNAASIGLHRRLGFEISGQMPQVGQKFGRWLDLTFMQLNLDPTRSAP”, the protein production entry is “not failed”.

Regarding “MSASRILTAFGLTGALVTAGVAQAGIVYIPEGSADSVLMVESETGQPVGRISGVEAVHGLAGAPGTPYLVAGSYSEIDPESAAQTARPEGVSQADHNAHHAKPAKAAMPTDKGLSLVSVIDAGTGEVVRRIEVPGAVHHTAVSPDGRWAMATHPGGDGVSLIDLSTLEYAGFIATGPMPNYVSFSPDNSRAYVSNAGNGTLSELDLDRRILSRNLLAGEGPEHFALSRDGATVFVADAEAGRVLRLDIASGAETASYGFGAELHGLDLSEREDTLFVAVKGADQVAAVDLASGAVRLQELAPAPYHLTVADGGETLFVSSREASMVWAVDQVSLRVTAEIGIEGEGHQMVVLP”, the protein production entry is recorded as “failed”.

As for “MSASTGASVIDLYHQAQDYFFVSISQFYRRFGSGLSAYCTGVEASSLNLLMMNVCAVDEPGALAEGVAFLQRTGMPFCVVVPEALVPRVSGQLHQQHLLAADKTTCMVLDLTRHEPRQALAAQAQVRCSDLRLEDWAQPVQSAFESGEGGIEQYLARHRAALSAGRALSHFTLYVEERPVSALTLSLLPGLARLDDIGTVQDCQGQGYATALIQAVLAFARARGARTCVLEASLDGLSIYRKAGFEALFDYRTFCQE”, the protein production entry is “failed”.

As for “MSATGLEVFDRTLHKTHAWLKAIMEELGTEDRHKAYLALRAVLHALRDRLTVEEVAQLAAQLPMLVRGLYYEGWDPTGKPLKERHKEAFLAHVAEELKTPSGPAVDPEAATRAVFKVLSREISQGELEDVLGLLPKELRALWPQG”, the protein production result was “not failed”.

“MSATYQLALQQLTDSALPTGAFAHSLGFESYIHRGLVRDESTFSTWLQAFVSQQLSYSDGLALRFLFEGVDVGLLDGVLSAQLLAREVREASLKMGGRLLEIGGEVFPSAELEAYRGLVRAGSASGHQPLAFGVIARSLGVPLEEALSAYLFATVTSLTQNAVRAIPLGQNAGQRVLRQAHDAVAAAIHVVAQLCWDDFGAVSPGLEISQMRHERQRARMFMS”: the protein production result is listed as “failed”.

Regarding “MSAYPPGAAPSDPVDPVTLEAGQTAKVTRPTGRFMLGHPARLIALGFGSGLSPVSPGTVGTLLGWLSFIVISKWIDPTTWLWIIAGGFVIGIWACLRTARDMGVYDHGSMVWDEIVAFWLVLLFVMPTGFWGQFAAFVWFRFFDIVKPAPIRYYDRTLKGPGFTGAFGVMFDDIFAAFYTLLVFALWRSI”, the protein production entry was “failed”.

These data come from a protein production outcome set (Wang et al. 2014).
